In patent US20070148164A1:
pKd: −log10 of the molar value.

Columns and labels:
[1] = target: soluble monomeric hFcRn (human) (UniProt P55899); experiment: Biacore, IgGs immobilized on the same chip, soluble monomeric hFcRn; reference human IgG1
hIgG (human IgG) = experiment: Biacore, hIgG immobilized

fold tighter Kd than hIgG [1] [fold]	pKd (hIgG (human IgG))	Substance
2		rabbit IgG1 (antibody)
	5.70	soluble monomeric hFcRn (from UniProt P55899 24-297; P61769 21-119) (receptor)
